Target: FLAG-tagged murine lipin 1b (murine) (UniProt Q91ZP3)
Experiment: atomic force microscopy

“FLAG-tagged murine lipin 1b (from UniProt Q91ZP3 1-924) (enzyme)” gave a stoichiometry N of 12.
